Assay results published in the RNAGym collection of RNA variant scans (doi:10.7554/elife.90254).

B1: LINE1-full (parent)
chain: UACGUAGGUGGUUUUCCCCUGAUAGUGCUAAGGGGGCCUGGAAGUUUGGACUGGGCAGAGCUCAACACAGCGUGGCAAAGUGGCUGUGGCUAGACUGCCUCUCUGGAUUCCUCGUCACUCAGCAGGGCAUCUCUGAGAGAAAUGCC

Variants of: B1
Assay: self-cleavage, relative activity (ratio to wild type); higher = more cleavage; in vitro, sequencing; the parent is a self-cleaving ribozyme

Variant | self-cleavage
A6C G35A | 1.5
U20G U85A | 0.24
U12C U91A | 0.64
U96C G127U | 0.19
G7A U87C | 0.07
A77C U91A | 0.38
U13C G88U | 0.09
G97A U134C | 0.07
U52G U108C | 1.94
U39G C103A | 1.85
G89A A107G | 0.01
A30U A121C | 0.55
U47G A59U | 1
G49A U112C | 1.45
U9C C95U | 0.19
A22G | 1.12
U62C A142G | 0.06
A6G A31U | 1.01
A57U G126U | 0.1
A22G G72A | 1.94
U81A A140G | 1.95

Variant | self-cleavage
A24G C131U | 1.59
A50G A67G | 0.37
A30G U39C | 1.13
A59G G144A | 0.12
U26G A50G | 0.56
U14A G54A | 0.4
C99A U115C | 0.84
G34A A94G | 0.18
A77G G97C | 0.65
C17U A65U | 0.07
G27A U102A | 1.12
U81C U130C | 1.88
C99U C145A | 1.03
A30G G114A | 0.92
A30G C56U | 0.84
U62A A69U | 0.05
U39C U87C | 0.17
C66U U119C | 0.04
U47G A138G | 0.98
A57C A107U | 0.07
U29C A78U | 2.53

Variant | self-cleavage
A124U U143C | 1.26
A129U U143C | 1.64
U100A U109A | 0.76
U13C C63U | 0.32
G80A A141G | 1.89
G10A A129U | 0.66
U130C G135U | 0.97
G32A U62A | 0.08
U23C G93U | 0.04
C19G G126A | 0.49
U46C U73C | 2.17
U39A A69G | 0.55
C3U A67U | 0.15
A24U U143A | 1.13
U9C U85C | 0.3
U73G A77G | 0.98
A57U U134C | 0.12
U13A A136U | 1.22
A2U A65U | 0.23
U52A C84U | 0.14
A42G G122A | 0.92

Variant | self-cleavage
A2G U9C | 0.83
U23C U130C | 1.76
A64U A136G | 0.71
U23C A121G | 2
G53U U73C | 1.22
A6G U104A | 0.73
U109C G135A | 1.71
U26A U119C | 0.97
U102C A140U | 1.48
G33A U91A | 0.59
U20A U52C | 1.77
A79G C110U | 2.15
U112C G137U | 0.88
U112A A142G | 1.57
U26A G55A | 0.25
U15A A107U | 1.06
U73A A78G | 0.34
U85A A117C | 0.07
G93A U130C | 0.02
U109A A129U | 2.02
